First the molecules themselves.
B1: SC03-026 (scFv)
scFv: AMAQVQLVQSGGGLVQPGGSLRLSCAASGFTFSSYAMHWVRQAPGKGLEYVSGISSNGGSTYYANSVKGRFTISRDNSKNTLYLQMGSLRAEDMAVYYCARTTNRAFDIWGQGTMVTVSSGTGGSGGTGSGTGGSTDIQMTQSPDSLAVSLGERATINCKSSQSILYSSNSKNYLGWYQQKPGQPPKLLIYWASTRESGVPDRFSGSGSGTDFTLTISSLQAEDVAVYYCQQYYSTPYSFGQGTKVEIKRAA
B2: SC03-025 (scFv)
scFv: AMAEVQLVESGGGLVQPGGSLRLSCAASGFTFSSYAMHWVRQAPGKGLEYVSGISSNGGSTYYANSVKGRFTISRDNSKNTLYLQMGSLRAEDMAVYYCARTTNRAFDIWGQGTMVTVSSGTGGSGGTGSGTGGSTDIQLTQSPDSLAVSLGERATINCKSSQSVLYSSNNKNYLAWYQQKPGQPPKLLIYWASIRESGVPDRFSGSGSGTDFTLTISSLQAEDVAVYYCQQYYNIPYAFGQGTKLEIKRAA
B3: SC03-023 (scFv)
scFv: AMAQVQLQQWGAGLLKPSETLSLTCAVYGGSFSGFYWSWIRQPPGKGLEWIGEINHSGSTNYNPSLKSRVTISVDTSKNQFSLKLSSVTAADTAVYYCARRVEVVEYQLLRPRYKSWFDPWGQGTLVTVSSGTGGSGGTGSGTGGSTQSALTQPRSVSGSPGQSVTISCTGSSSTVGGYNYVSWYQQHPGKAPKLMIYDVSKRPSGVSNRFSGSKSGNTASLTISGLQAEDEADYYCSSYTSSSTYVFGTGTKVTVLGAA
B4: SC03-020 (scFv)
scFv: AMAEVQLVQSGSEVKKPGESLKISCKGSGYGFITYWIGWVRQMPGKGLEWMGIIYPGDSETRYSPSFQGQVTISADKSINTAYLQWSSLKASDTAIYYCAGGSGISTPMDVWGQGTTVTVSSGTGGSGGTGSGTGGSTDIQMTQSPDSLAVSLGERATINCKSSQKILHSSNNKNYLAWYQQKPGQPPKLLIYWASTRESGVPDRFSGSGSGTDFTLTISSLQAEDVAVYYCQQYYSTPPVFGGGTKVEIKRAA
B5: SC03-021 (scFv)
scFv: B4 scFv with E4Q, S12T, I140V, Q141V, K166S, I167V, E199Q, V241T, G244Q
B6: SC03-024 (scFv)
scFv: AMAQVQLVESGSELKIPGASVKVSCKATGYTFTRYSLNWVRQAPGQGLEWVGWINTQTGNSNYGQAFSGRFVFSLDTSVSTAYLQISSLQAEDTATYYCARKSAGSNAFDIWGQGTMVTVSSGTGGSGGTGSGTGGSTQSVVTQPPSVSAAPGQKATISCSGSSSNIGNNYVSWYQQLPGTAPKLLIYDNNKRPSGIPNRFSGSKSGTSATLGITGLQTGDEADYYCGTWDSSLSAYVFGTGTKVTVLGAA
B7: SC03-046 (scFv)
scFv: B1 scFv with Q4E, I138V, Q139V, I165V, S171N, G176A, T214S, T236P, S239T, Q242P
B8: SC03-039 (scFv)
scFv: AMAEVQLVESGGGLVQPGGSLRLSCAASGFTFSSYAMSWVRQAPGKGLEWVSVIYSGGTSTYYADSVKGRFTISRDNSKNTLYLQMNSLRAEDTAVYFCAKGSKWNDVGGGDYWGQGTLVTVSSGTGGSGGTGSGTGGSTNFMLTQPHSVSESPGKTVTISCAGSSGSIASNYVQWYQQRPGSAPTTVIYEDNQRPSGVPDRFSGSIDSSSNSASLTISGLKTEDEADYYCQSYDGYLWIFGGGTKLTVLGAA
B9: SC03-043 (scFv)
scFv: B1 scFv with M140L, I165V, S168R, S171N, G176A, P201S, D202E, V246L
B10: SC03-034 (scFv)
scFv: AMAEVQLVQSGAEVKKPGESLKISCKGSGYGFITYWIGWVRQMPGKGLEWMGIIYPGDSETRYSPSFQGQVTISADKSINTAYLQWSSLKASDTAIYYCAGGSGISTPMDVWGQGTTVTVSSGTGGSGGTGSGTGGSTDVVMTQSPDSLAVSLGERATINCKSSQSILNRSNNKNYLAWYQQKPGQPPKLLIYWASTRESGVPDRFSGSGSGTDFNLTISSLQAEDVAVYYCQQYNNWPLTFGGGTKVDIKRAA
B11: SC03-057 (scFv)
scFv: AMAQVQLVQSGAEVKKPGSSVKVSCKASGGTFSRYAISWVRQAPGQGLEWMGRINPILNLTNYAQKFQGRVTITADKSTSTAYMEMSSLRSEDTAIYYCASPDIVVAGHASPPHYTMDVWGQGTTVTVSSGTGGSGGTGSGTGGSTDIQMTQSPSSLSASVGDRVTITCRASQGIRNDLGWYQQKPGKAPNLLIYQASALQSGVPSRFSGSESGAEFTLTISSLHPDDFATYYCQQYHDFPITFGQGTRLEIKRAA
B12: SC03-055 (scFv)
scFv: AMAQVQLQQWGAGLLKPSETLSLTCAVYGGSFSGFYWSWIRQPPGKGLEWIGEINHSGSTNYNPSLKSRVTISADTSKNQFSLKLSSVTAADTAVYYCARRVEVVEYQLLRPRYKSWFDPWGQGTLVTVSSGTGGSGGTGSGTGGSTQSVLTQPPSVSGAPGQRVSISCSGSGANGGTDPVSWYQKFPGTAPHLLIYDNNKRPSGIPDRFSGSKSGASATLDITGLQTGDEADYYCGAWDPSLSGYVFGTGTQLTVLSAA
B13: SC03-051 (scFv)
scFv: B4 scFv with E4Q, S12T, S164G, K166S, H169Y, N173D, P240Y, V241T, G244Q
B14: SC03-036 (scFv)
scFv: AMAEVQLVQSGTEVKKPGESLKISCKGSGYGFITYWIGWVRQMPGKGLEWMGIIYPGDSETRYSPSFQGQVTISADKSINTAYLQWSSLKASDTAIYYCAGGSGISTPMDVWGQGTTVTVSSGTGGSGGTGSGTGGSTDIQMTQSPDSLAVSLGERATINCKSSQSVLHSPNNKNYLAWYQQKPGQPPKLLIYWASTRESGVPDRFSGSGSGTDFTLTISSLQAEDVAVYYCQQYYSTNSFGQGTKLEIKRAA
B15: SC03-033 (scFv)
scFv: AMAQVQLVQSGTEVKKPGESLKISCKGSGYGFITYWIGWVRQMPGKGLEWMGIIYPGDSETRYSPSFQGQVTISADKSINTAYLQWSSLKASDTAIYYCAGGSGISTPMDVWGQGTTVTVSSGTGGSGGTGSGTGGSTDVVMTQSPDSLAVSLGERATINCKTSHNIFSRSNNKDYLAWYQQKPGQPPRLLIYWASTRASGVPERFSGSGSGTDFSLTISSLQAEDVAVYYCQQYYSSPMYSFGQGTKVEIKRAA
B16: SC03-031 (scFv)
scFv: AMAQVQLVQSGADVKKPGSSVKVSCEASGGTFSSYAISWVRQAPGQGLEWMGRIIPILGITNYAQKFQGRVTITADKSTGTGNMELSSLRSEDTAVYYCARESGGGYDNHFDYWGQGTLVTVSSGTGGSGGTGSGTGGSTQSVLTQPPSASGTPGQRVTISCSGGSSNIGSNTVNWYQQLPGTAPKLVIYANNQRPSGVPDRFSASKSGTSASLAISGLQSEDEADYYCAAWDDSLTGGVFGGGTQLTVLSAA
B17: SC03-037 (scFv)
scFv: AMAKVQLVQSGGGLIQPGGSLRLSCAASGFTVSSNYMSWVRQAPGKGLEWVSIVFSGGSTYYADSVKGRFTISRDNSKNTLYLQMNSLRAEDTAVYYCARDAHRGFGMDVWGQGTTVTVSSGTGGSGGTGSGTGGSTSSELTQDPAVSVALGQTVRITCQGDSLRSYYASWYQQKPGQAPVLVIYGKNNRPSGIPDRFSGSSSGNTASLTITGAQAEDEADYYCNGRDSSGNHWVFGGGTKLTVLGAA
B18: SC03-038 (scFv)
scFv: B17 scFv with K4E, N205D, G226S
B19: SC03-044 (scFv)
scFv: B2 scFv with S10T, L140M, I195T, S205R, V225L, N235S, I236T, A239S
B20: SC03-040 (scFv)
scFv: B1 scFv with K160R, I165V, S171N, G176A, T236S, V246L
B21: SC03-054 (scFv)
scFv: B1 scFv with Q4E, L14V, G19R, M140L, I165V, S171N, G176A, S207G

Where a chain is given by its changes, count along the chain named.

Experimental findings from EP1644414B1 are described below.

One experiment concerns the target UV-inactivated SARS-CoV preparation (Frankfurt 1 strain) (SARS-CoV strain Frankfurt 1). Put plainly: phage ELISA, plate 2 (no phage 0.211).
The molecule B1 yielded an OD492nm of 1.07 OD492nm.

As for B2, the OD492nm came to 1.64 OD492nm.

The molecule B3 had an OD492nm of 1.31 OD492nm.

On to B4, for which the OD492nm was determined as 0.671 OD492nm.

In the case of B5, the OD492nm came out at 0.215 OD492nm.

For B6, the OD492nm is 0.235 OD492nm.

Another experiment has the same target. As to the kind of experiment: phage ELISA, plate 3 (no phage 0.054).
With B7, the OD492nm is 1.9 OD492nm.

Consider B8, for which the OD492nm amounted to 0.851 OD492nm.

B9 gave an OD492nm of 1.27 OD492nm.

Molecule B10 had an OD492nm of 0.802 OD492nm.

B11: the OD492nm amounted to 1.19 OD492nm.

Molecule B12 registered an OD492nm of 0.608 OD492nm.

B13 returned an OD492nm of 0.602 OD492nm.

Molecule B14 showed an OD492nm of 0.24 OD492nm.

The next experiment shares this target. As to the kind of experiment: phage ELISA, plate 4 (no phage 0.051).
Turning to B15, the OD492nm is 0.288 OD492nm.

Turning to B16, the OD492nm was 0.635 OD492nm.

The molecule B17 returned an OD492nm of 0.287 OD492nm.

In turn, B18 came in with an OD492nm of 0.314 OD492nm.

Turning to B19, the OD492nm came to 0.518 OD492nm.

Regarding B20, the OD492nm stood at 0.616 OD492nm.

Molecule B21 gave an OD492nm of 0.428 OD492nm.
